From the supplement of paper PMC9732359
± gives the uncertainty stated by the source.

Assay: protein stability index of a GFP-peptide fusion (yeast GPS) (PSI 1-4); higher = more stable; sorted into four equal gates, so the index is relative within each strain
Procedure, shortened: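 For each peptide, the protein stability index sums the read frequency in every gate after multiplying it by the gate number. Read frequencies came from plasmids that were PCR-amplified from each gate and Illumina-sequenced, with reads assigned to strains by barcodes. The gates were four equal bins of GFP/Cherry fluorescence ratio applied to mid-log yeast in leucine-free medium carrying a pooled library of tiled 17-residue yeast protein peptides fused downstream of GFP on a Cherry-expressing plasmid.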

Row | Sequence | protein stability index (doa10∆) | protein stability index (pdr5∆) | protein stability index (san1∆) | protein stability index (ubr1∆)
1 | GDVKNMEDVKIQKEEEP [SWI3] | 3.45 ± 0.14 | 3.4 ± 0.2 | 3.43 ± 0.085 | 3.14 ± 0.12
2 | GYQWGEENKDIMNVLSE [PRP8] | 2.8 ± 0.22 | – | – | 3.16 ± 0.24
3 | DNPLRQIPHFNNKILEK [BRR2] | 3.08 ± 0.092 | 3.1 ± 0.084 | 3.08 ± 0.086 | 3.19 ± 0.08
4 | MTLNRKCVVIHNGSHRT [ARP7] | 2.59 ± 0.051 | 2.74 ± 0.062 | 2.54 ± 0.059 | 2.66 ± 0.045
5 | RRQAVDVSPLRRVNQAI [RPS5] | 2.63 ± 0.083 | 2.62 ± 0.094 | 2.69 ± 0.078 | 2.75 ± 0.083
6 | LKVLSGDEGYNEDMVRR [SNF12] | 3.48 ± 0.13 | 3.22 ± 0.13 | 3.25 ± 0.095 | 3.56 ± 0.15
7 | AIIVAGVQSNGDQFLRY [PRE4] | 2.74 ± 0.095 | 2.83 ± 0.073 | 2.4 ± 0.13 | 2.28 ± 0.061
8 | LQSDKNFLDNCLFENDL [ITC1] | 2.13 ± 0.079 | 3.03 ± 0.073 | 2.92 ± 0.055 | 3.01 ± 0.059
9 | VLTHESLHRQQQQQQQQ [DLS1] | 3 ± 0.082 | 2.9 ± 0.079 | 2.62 ± 0.052 | 2.85 ± 0.079
10 | MAILLLYNDADVLTLEN [CDC53] | 1.58 ± 0.09 | 1.93 ± 0.063 | 2.5 ± 0.084 | 2.75 ± 0.06
11 | LALALGILYMGQGEQVD [RPN1] | 1.26 ± 0.16 | 1.5 ± 0.13 | 1.45 ± 0.13 | 1.23 ± 0.11
12 | SFVKETKLHSGDYGEEE [SRB8] | 3.61 ± 0.23 | 3.22 ± 0.13 | – | 3.44 ± 0.1
13 | GMRVGVDRSKYNIELPL [RPT1] | – | – | 3.52 ± 0.16 | –
14 | VVIDAFRLIDTGALINN [RPN11] | 1.27 ± 0.16 | 1.78 ± 0.17 | – | 1.11 ± 0.098
15 | SSEYETINISLSFSWAI [NUT1] | 1.51 ± 0.1 | 1.64 ± 0.16 | 2.21 ± 0.13 | 2.4 ± 0.13
16 | PQQPMVKTKTIELIDYD [RET1] | 2.89 ± 0.14 | 3.18 ± 0.2 | 2.94 ± 0.075 | 2.97 ± 0.058
17 | TFGINLIYVNPFMLQWG [FAS1] | 2.22 ± 0.067 | 2.35 ± 0.08 | 2.46 ± 0.074 | 2.4 ± 0.051
18 | ERLMTWKFKSLIEILRL [RRI2] | 2.11 ± 0.054 | 2.01 ± 0.044 | 1.68 ± 0.088 | 2.31 ± 0.032
19 | SETDKRQFLHELRRPGV [RPO31] | 1.89 ± 0.056 | 1.73 ± 0.059 | 1.57 ± 0.16 | 1.57 ± 0.069
20 | VGSPLTVSILQESSSLR [POP8] | 3.21 ± 0.078 | 3.01 ± 0.057 | 3.01 ± 0.063 | 3.1 ± 0.042
21 | NLETLVTTKDDLSGADI [RPT2] | 3.15 ± 0.067 | 3.34 ± 0.085 | 3.27 ± 0.037 | 3.34 ± 0.057
22 | ALFQPPNFDWDLCSSVL [ROX3] | 3.08 ± 0.077 | 3.29 ± 0.098 | 2.95 ± 0.089 | 2.92 ± 0.09
23 | DIILGQNIKAPSVKRQK [PRP8] | 2.44 ± 0.081 | 2.35 ± 0.078 | 1.53 ± 0.16 | 2.51 ± 0.072
24 | NRRLFKKCIDFFEMLIS [RRI2] | 2.2 ± 0.037 | 2.05 ± 0.045 | 2.12 ± 0.058 | 2.02 ± 0.03
25 | PDSNHLSSETGIKLALD [SRB4] | 3.3 ± 0.087 | 3.35 ± 0.073 | 3.33 ± 0.058 | 3.37 ± 0.066
26 | LTRFSHDADLEVSMNSI [RPN1] | 3.24 ± 0.099 | 3.14 ± 0.056 | 3.08 ± 0.05 | 3.1 ± 0.037
27 | NNMNVNMNLNPQMFLNQ [GAL11] | 2.14 ± 0.043 | 2.56 ± 0.046 | 2.46 ± 0.048 | 2.48 ± 0.035

Row | Sequence | protein stability index (doa10∆) | protein stability index (pdr5∆) | protein stability index (san1∆) | protein stability index (ubr1∆)
28 | SDSSSEDEVKVEGPKFT [YLR335W/NUP2] | 3.4 ± 0.12 | 3.47 ± 0.13 | 3.4 ± 0.06 | 3.44 ± 0.16
29 | MIVYYKDAISFIKEIHK [YCS4] | 2.19 ± 0.092 | 1.84 ± 0.069 | 2.57 ± 0.11 | 2.26 ± 0.072
30 | ITGNKIMRILKSNGLAP [RPS13] | 3.01 ± 0.14 | 3.32 ± 0.18 | 2.53 ± 0.16 | 2.91 ± 0.057
31 | LWLKKVMEEEEQDCKCI [POP8] | 2.63 ± 0.077 | 2.7 ± 0.068 | 3.05 ± 0.078 | 2.99 ± 0.051
32 | DDFMHSETREKELESID [RPB4] | – | – | 2.74 ± 0.12 | 3.2 ± 0.19
33 | HPPFIKYACLAIRKNGQ [SIN4] | 1.45 ± 0.042 | 1.51 ± 0.039 | 1.68 ± 0.065 | 1.42 ± 0.031
34 | FDEEFDPFKTSSFNKRS [IRR1] | 2.76 ± 0.083 | 2.92 ± 0.061 | 2.81 ± 0.11 | 2.78 ± 0.084
35 | QKDKSDTYKRFKYLLGV [ISW2] | 1.59 ± 0.05 | 1.4 ± 0.062 | 1.4 ± 0.1 | 1.58 ± 0.048
36 | LSESPVDFEKFETFLVD [SIN4] | 3.03 ± 0.12 | 2.73 ± 0.21 | – | 2.76 ± 0.21
37 | GTNNISQHGQGNNPSWV [YDL088C/ASM4] | 3.01 ± 0.078 | 3.39 ± 0.059 | 3.3 ± 0.058 | 3.12 ± 0.054
38 | LPTNPTLDKPNAEATKE [CSE2] | 2.91 ± 0.072 | 2.87 ± 0.062 | 2.89 ± 0.046 | 2.85 ± 0.066
39 | VPLIKVADAKQLGEWAG [RPS12] | 3.17 ± 0.21 | 3.49 ± 0.23 | – | 3.17 ± 0.12
40 | DVFTINPHQKDQLIISS [YML103C/NUP188] | 1.56 ± 0.18 | 2.19 ± 0.19 | 1.62 ± 0.24 | 2.74 ± 0.24
41 | STCIVSLIRNNLHAEGW [ECM29] | 1.21 ± 0.052 | 1.47 ± 0.068 | 2 ± 0.077 | 1.64 ± 0.067
42 | PEWMILTCLPVPPPPVR [RPO21] | – | 3.52 ± 0.17 | – | –
43 | PSTGGVKKPHRYKPGTV [HHT1] | 1.59 ± 0.065 | 1.62 ± 0.057 | 1.64 ± 0.097 | 1.81 ± 0.072
44 | KLASTLEKISSSNKDLE [SMC4] | 3.09 ± 0.053 | 2.68 ± 0.067 | 2.96 ± 0.038 | 2.82 ± 0.056
45 | ELPLEDFKAKYCDSMGR [RPB5] | 3.31 ± 0.13 | 3.29 ± 0.14 | 3.74 ± 0.13 | 3.51 ± 0.12
46 | IKKFAKLHMGTDDVRLA [RPL31A] | 1.7 ± 0.037 | 1.32 ± 0.042 | 1.24 ± 0.064 | 1.58 ± 0.037
47 | SGSAGANPAGASQPEPT [YJL041W/NSP1] | 2.9 ± 0.18 | 3.2 ± 0.13 | 2.93 ± 0.1 | 3.15 ± 0.1
48 | EAIETCKNFEKTQLGST [GAL11] | 2.51 ± 0.13 | 3.1 ± 0.19 | – | 3.36 ± 0.24
49 | IKIFELKLPADATTWRY [IRR1] | 2.03 ± 0.056 | 2.06 ± 0.049 | 2.26 ± 0.08 | 2.39 ± 0.046
50 | IIDAKTRNEQTTIQTEK [MCD1] | 3.19 ± 0.093 | 3.23 ± 0.082 | 2.91 ± 0.17 | 3.01 ± 0.06
51 | AEEFDFNVPVVSKQLGN [YAR002W/NUP60] | 2.47 ± 0.18 | 1.35 ± 0.17 | 1.28 ± 0.14 | 1.14 ± 0.11
52 | LLATKQHDSSANEDEEE [CSN12] | 2.85 ± 0.12 | 3.05 ± 0.089 | 2.72 ± 0.086 | 2.87 ± 0.1
53 | SSTPKFTKKPVTPNDKI [SIR4] | 2.96 ± 0.11 | 2.89 ± 0.07 | 2.96 ± 0.062 | 3.08 ± 0.054
54 | LVRRLSDIKQGYTQHGG [PRE9] | 2.5 ± 0.14 | 2.06 ± 0.25 | 2.48 ± 0.09 | –
